Results reported in paper PMC4423211 (2015).

T1: IL1RAP (Mus musculus (Mouse), UniProt Q61730)
T1 chain: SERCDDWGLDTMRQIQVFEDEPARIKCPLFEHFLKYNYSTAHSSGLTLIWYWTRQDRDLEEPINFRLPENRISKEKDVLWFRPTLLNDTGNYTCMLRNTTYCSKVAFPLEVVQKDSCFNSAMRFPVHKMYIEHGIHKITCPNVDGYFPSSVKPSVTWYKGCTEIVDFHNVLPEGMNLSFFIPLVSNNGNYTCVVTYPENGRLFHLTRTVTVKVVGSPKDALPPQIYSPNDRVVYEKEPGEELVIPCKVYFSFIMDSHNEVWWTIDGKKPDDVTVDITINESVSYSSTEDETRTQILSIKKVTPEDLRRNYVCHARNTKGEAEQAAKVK

T2: IL1RAPL1 (Mus musculus (Mouse), UniProt P59823)
T2 chain: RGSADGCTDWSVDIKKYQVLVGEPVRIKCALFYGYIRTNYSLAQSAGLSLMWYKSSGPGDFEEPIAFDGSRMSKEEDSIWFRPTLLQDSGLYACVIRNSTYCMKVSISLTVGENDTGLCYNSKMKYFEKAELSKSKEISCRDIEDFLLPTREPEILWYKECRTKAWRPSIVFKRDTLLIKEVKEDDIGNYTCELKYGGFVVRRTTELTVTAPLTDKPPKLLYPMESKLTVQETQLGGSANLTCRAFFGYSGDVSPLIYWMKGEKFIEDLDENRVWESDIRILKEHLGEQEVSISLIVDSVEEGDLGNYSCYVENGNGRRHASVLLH


Assays:
[1] = target: IL-1RAcP-ECD-Fc, wild type (mouse) (UniProt Q61730); assay: SPR; equilibrium; Biacore T200, 25 °C, 10 mM Hepes (pH 7.9), 150 mM NaCl, 0.05% Tween-20; IL-1RAcP-ECD-Fc captured (about 700 RU) by anti-Fc antibodies immobilised on a CM5 chip; PTPδ Ig1–Fn1 variants or mutants injected as analytes, 15.6 to 4,000 nM
[2] = target: IL1RAPL1-ECD-His6, wild type (mouse) (UniProt P59823)
[3] = target: IL1RAPL1-ECD-His6, wild type (mouse) (UniProt P59823); assay: SPR; equilibrium; Biacore T200, 25 °C, 10 mM Hepes (pH 7.9), 150 mM NaCl, 0.05% Tween-20; IL1RAPL1-ECD-His6 amine-coupled on a CM5 chip (about 2,000 RU); PTPδ Ig1–Fn1 variants or mutants injected as analytes, 15.6 to 4,000 nM
IL1RAP = target: T1, IL1RAP; assay: SPR equilibrium 25C, PTPRD Ig1-Fn1 analyte
IL1RAPL1 = target: T2, IL1RAPL1; assay: SPR equilibrium 25C, PTPRD Ig1-Fn1 analyte

Chain of IL1RAPL1-ECD-His6, wild type (mouse) (P59823 19-352): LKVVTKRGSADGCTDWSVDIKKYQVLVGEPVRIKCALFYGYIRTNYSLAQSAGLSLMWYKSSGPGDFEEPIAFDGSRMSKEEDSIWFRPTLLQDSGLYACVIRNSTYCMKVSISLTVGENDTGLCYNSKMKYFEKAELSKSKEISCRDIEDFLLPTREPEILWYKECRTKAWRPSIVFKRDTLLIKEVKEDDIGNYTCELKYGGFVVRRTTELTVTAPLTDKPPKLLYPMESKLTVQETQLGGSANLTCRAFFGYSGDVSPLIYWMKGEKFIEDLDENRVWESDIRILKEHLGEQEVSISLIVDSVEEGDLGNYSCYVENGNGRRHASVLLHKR

| Kd [1] [nM] | Kd [3] [nM] | Kd (IL1RAP) [nM] | Kd (IL1RAPL1) [nM] | Molecule | other results |
| --- | --- | --- | --- | --- | --- |
| 5300 |  |  |  | PTPδ Ig1–Fn1 E286A (domain or fragment) |  |
| 1100 | 2800 |  |  | PTPδ Ig1–Fn1 R75A (domain or fragment) | synaptogenic (postsynapse-inducing) activity: accumulation of Shank2 in cortical neurons around magnetic beads conjugated with PTPδ-ECD-Fc R75A, against wild-type PTPδ-ECD-Fc [2]: 7% |
| 890 | 1700 |  |  | PTPδ Ig1–Fn1 R196A (domain or fragment) |  |
|  | 860 |  |  | PTPδ Ig1–Fn1 Y273A (domain or fragment) |  |
| 510 |  |  |  | PTPδ Ig1–Fn1 splicing variant meA3/+ (domain or fragment) |  |
| 2800 |  |  |  | PTPδ Ig1–Fn1 splicing variant meA3/− (domain or fragment) |  |
| 730 | 810 |  |  | PTPδ Ig1–Fn1 splicing variant meA6/+ (domain or fragment) |  |
| 2300 |  |  |  | PTPδ Ig1–Fn1 splicing variant meA6/− (domain or fragment) |  |
| 2000 | 800 |  |  | PTPδ Ig1–Fn1 splicing variant meA9/− (domain or fragment) |  |
| 2200 |  |  |  | PTPδ Ig1–Fn1 splicing variant −/+ (no meA, with meB) (domain or fragment) |  |
| 2400 |  |  |  | PTPδ Ig1–Fn1 splicing variant −/− (lacking both meA and meB) (domain or fragment) |  |
| 910 | 160 |  |  | PTPδ Ig1–Fn1, meB replaced by Gln-Leu-Glu-Gln (domain or fragment) |  |
| 640 | 140 |  |  | PTPδ Ig1–Fn1, meB replaced by Gly-Ser-Ser-Gly (domain or fragment) |  |
| 3800 | 420 |  |  | PTPδ Ig1–Fn1, meB replaced by three tandem units of meB (domain or fragment) |  |
| 1500 | 150 |  |  | PTPδ Ig1–Fn1, meB replaced by two tandem units of meB (domain or fragment) |  |
|  |  | 730 | 810 | PTPRD_A6B1 (protein) ETPPRFTRTPVDQTGVSGGVASFICQATGDPRPKIVWNKKGKKVSNQRFEVIEFDDGSGSVLRIQPLRTPRDEAIYECVASNNVGEISVSTRLTVLREDQIPRGFPTIDMGPQLKVVERTRTATMLCAASGNPDPEITWFKDFLPVDTSNNNGRIKQLRSGGTPIRGALQIEQSEESDQGKYECVATNSAGTRYSAPANLYVRELREVRRVPPRFSIPPTNHEIMPGGSVNITCVAVGSPMPYVKWMLGAEDLTPEDDMPIGRNVLELNDVRQSANYTCVAMSTLGVIEAIAQITVKA |  |
|  |  | 2400 | > 4000 | PTPRD_A0B0 (protein) ETPPRFTRTPVDQTGVSGGVASFICQATGDPRPKIVWNKKGKKVSNQRFEVIEFDDGSGSVLRIQPLRTPRDEAIYECVASNNVGEISVSTRLTVLREDQIPRGFPTIDMGPQLKVVERTRTATMLCAASGNPDPEITWFKDFLPVDTSNNNGRIKQLRSGALQIEQSEESDQGKYECVATNSAGTRYSAPANLYVRVRRVPPRFSIPPTNHEIMPGGSVNITCVAVGSPMPYVKWMLGAEDLTPEDDMPIGRNVLELNDVRQSANYTCVAMSTLGVIEAIAQITVKA |  |
|  |  | 2800 | > 4000 | PTPRD_A3B0 (protein) ETPPRFTRTPVDQTGVSGGVASFICQATGDPRPKIVWNKKGKKVSNQRFEVIEFDDGSGSVLRIQPLRTPRDEAIYECVASNNVGEISVSTRLTVLREDQIPRGFPTIDMGPQLKVVERTRTATMLCAASGNPDPEITWFKDFLPVDTSNNNGRIKQLRSESIGALQIEQSEESDQGKYECVATNSAGTRYSAPANLYVRVRRVPPRFSIPPTNHEIMPGGSVNITCVAVGSPMPYVKWMLGAEDLTPEDDMPIGRNVLELNDVRQSANYTCVAMSTLGVIEAIAQITVKA |  |
|  |  | 2300 | > 4000 | PTPRD_A6B0 (protein) ETPPRFTRTPVDQTGVSGGVASFICQATGDPRPKIVWNKKGKKVSNQRFEVIEFDDGSGSVLRIQPLRTPRDEAIYECVASNNVGEISVSTRLTVLREDQIPRGFPTIDMGPQLKVVERTRTATMLCAASGNPDPEITWFKDFLPVDTSNNNGRIKQLRSGGTPIRGALQIEQSEESDQGKYECVATNSAGTRYSAPANLYVRVRRVPPRFSIPPTNHEIMPGGSVNITCVAVGSPMPYVKWMLGAEDLTPEDDMPIGRNVLELNDVRQSANYTCVAMSTLGVIEAIAQITVKA |  |
|  |  | 2000 | 800 | PTPRD_A9B0 (protein) ETPPRFTRTPVDQTGVSGGVASFICQATGDPRPKIVWNKKGKKVSNQRFEVIEFDDGSGSVLRIQPLRTPRDEAIYECVASNNVGEISVSTRLTVLREDQIPRGFPTIDMGPQLKVVERTRTATMLCAASGNPDPEITWFKDFLPVDTSNNNGRIKQLRSESIGGTPIRGALQIEQSEESDQGKYECVATNSAGTRYSAPANLYVRVRRVPPRFSIPPTNHEIMPGGSVNITCVAVGSPMPYVKWMLGAEDLTPEDDMPIGRNVLELNDVRQSANYTCVAMSTLGVIEAIAQITVKA |  |
|  |  | 680 | 150 | PTPRD_A9B1 (protein) ETPPRFTRTPVDQTGVSGGVASFICQATGDPRPKIVWNKKGKKVSNQRFEVIEFDDGSGSVLRIQPLRTPRDEAIYECVASNNVGEISVSTRLTVLREDQIPRGFPTIDMGPQLKVVERTRTATMLCAASGNPDPEITWFKDFLPVDTSNNNGRIKQLRSESIGGTPIRGALQIEQSEESDQGKYECVATNSAGTRYSAPANLYVRELREVRRVPPRFSIPPTNHEIMPGGSVNITCVAVGSPMPYVKWMLGAEDLTPEDDMPIGRNVLELNDVRQSANYTCVAMSTLGVIEAIAQITVKA |  |
|  |  | 510 | > 4000 | PTPRD_A3B1 (protein) ETPPRFTRTPVDQTGVSGGVASFICQATGDPRPKIVWNKKGKKVSNQRFEVIEFDDGSGSVLRIQPLRTPRDEAIYECVASNNVGEISVSTRLTVLREDQIPRGFPTIDMGPQLKVVERTRTATMLCAASGNPDPEITWFKDFLPVDTSNNNGRIKQLRSESIGALQIEQSEESDQGKYECVATNSAGTRYSAPANLYVRELREVRRVPPRFSIPPTNHEIMPGGSVNITCVAVGSPMPYVKWMLGAEDLTPEDDMPIGRNVLELNDVRQSANYTCVAMSTLGVIEAIAQITVKA |  |
|  |  | 2200 | > 4000 | PTPRD_A0B1 (protein) ETPPRFTRTPVDQTGVSGGVASFICQATGDPRPKIVWNKKGKKVSNQRFEVIEFDDGSGSVLRIQPLRTPRDEAIYECVASNNVGEISVSTRLTVLREDQIPRGFPTIDMGPQLKVVERTRTATMLCAASGNPDPEITWFKDFLPVDTSNNNGRIKQLRSGALQIEQSEESDQGKYECVATNSAGTRYSAPANLYVRELREVRRVPPRFSIPPTNHEIMPGGSVNITCVAVGSPMPYVKWMLGAEDLTPEDDMPIGRNVLELNDVRQSANYTCVAMSTLGVIEAIAQITVKA |  |
